These results are taken from paper PMC5748987 (The Journal of Cell Biology, 2018).

First the molecules themselves.
B1: GST-xBuGZ(8–58) (domain or fragment)
chain: not shown
B2: GST-xAurA (full length, amino acids 1–407) (enzyme)
chain: MERAVKENHKPSNVKIFHPMTEGAKRIPVNQPQSTQFRPPGTAVSAQRILGPSNVPQRVLAQAQKPILSSQKPTTQIPLRPATQGHQSSKPQGPNENRNPQQTSHSSTPNVEKKGSTDQGKTSAVPKEEGKKKQWCLEDFEIGRPLGKGKFGNVYLARERESKFILALKVLFKSQLEKAGVEHQLRREVEIQSHLRHPNILRLYGYFHDASRVYLILDYAPGGELFRELQKCTRFDDQRSAMYIKQLAEALLYCHSKKVIHRDIKPENLLLGSNGELKIADFGWSVHAPSSRRTTLCGTLDYLPPEMIEGRMHDETVDLWSLGVLCYEFLVGKPPFETDTHQETYRRISKVEFQYPPYVSEEARDLVSKLLKHNPNHRLPLKGVLEHPWIIKNSQLKKKDEPLPGAQ
B3: xAurA (cleaved from mCherry-xAurA) (enzyme)
chain: B2 chain
B4: GST-xAurA(127–407) (domain or fragment)
chain: KEEGKKKQWCLEDFEIGRPLGKGKFGNVYLARERESKFILALKVLFKSQLEKAGVEHQLRREVEIQSHLRHPNILRLYGYFHDASRVYLILDYAPGGELFRELQKCTRFDDQRSAMYIKQLAEALLYCHSKKVIHRDIKPENLLLGSNGELKIADFGWSVHAPSSRRTTLCGTLDYLPPEMIEGRMHDETVDLWSLGVLCYEFLVGKPPFETDTHQETYRRISKVEFQYPPYVSEEARDLVSKLLKHNPNHRLPLKGVLEHPWIIKNSQLKKKDEPLPGAQ

In assay [1] the target is B3. Briefly: pull-down.
For assay [2], the target named is T1, YFP-xBuGZ (full length) (Xenopus laevis, UniProt Q7ZXV8 1-452). Briefly: pull-down.
Assay [3] has as its target T1, YFP-xBuGZ (full length). Put plainly: co-sedimentation.
A further assay has as its target YFP-xBuGZΔN7 (Xenopus laevis, UniProt Q7ZXV8 8-452). Briefly: pull-down.

T1 sequence (Q7ZXV8 whole entry): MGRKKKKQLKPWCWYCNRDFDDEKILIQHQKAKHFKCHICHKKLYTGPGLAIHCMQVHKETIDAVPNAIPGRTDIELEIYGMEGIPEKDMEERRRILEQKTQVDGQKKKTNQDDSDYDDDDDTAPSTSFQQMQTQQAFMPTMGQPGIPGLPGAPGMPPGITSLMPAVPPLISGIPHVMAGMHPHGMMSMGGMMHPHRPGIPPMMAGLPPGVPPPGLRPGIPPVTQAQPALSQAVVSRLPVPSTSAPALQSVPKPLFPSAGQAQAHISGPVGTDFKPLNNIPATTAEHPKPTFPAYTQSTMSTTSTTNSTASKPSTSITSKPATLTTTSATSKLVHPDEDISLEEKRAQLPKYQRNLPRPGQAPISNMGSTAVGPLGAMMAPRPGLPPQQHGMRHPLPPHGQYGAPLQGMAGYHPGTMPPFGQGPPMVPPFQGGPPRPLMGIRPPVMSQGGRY
Sequence of YFP-xBuGZΔN7 (Q7ZXV8 8-452, stated change not applied): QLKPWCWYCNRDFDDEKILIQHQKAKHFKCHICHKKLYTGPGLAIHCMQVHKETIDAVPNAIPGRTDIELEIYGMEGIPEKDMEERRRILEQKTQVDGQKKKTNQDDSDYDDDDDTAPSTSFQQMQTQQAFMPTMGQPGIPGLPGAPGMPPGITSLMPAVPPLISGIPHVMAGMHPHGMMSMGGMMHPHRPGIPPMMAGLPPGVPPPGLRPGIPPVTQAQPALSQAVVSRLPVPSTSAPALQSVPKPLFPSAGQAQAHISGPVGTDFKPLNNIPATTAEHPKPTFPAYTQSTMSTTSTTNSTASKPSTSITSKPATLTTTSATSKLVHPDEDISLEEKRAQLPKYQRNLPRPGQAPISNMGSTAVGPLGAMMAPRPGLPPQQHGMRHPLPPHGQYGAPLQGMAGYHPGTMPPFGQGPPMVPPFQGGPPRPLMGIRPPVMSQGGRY

For B1, in assay [1], the binding result is “binds”. On to B2, for which the binding result with YFP-xBuGZ (full length) [2] was “binds”.

Regarding B3, the binding result in the assay with YFP-xBuGZ (full length) [3] and with YFP-xBuGZΔN7 was “binds” each time.

On to B4, for which the binding result with YFP-xBuGZ (full length) [2] was “binds”.
